Laboratory results published in patent US20050032692A1.

How the values were obtained:
Cdk1 protein = Cdk1 protein (UniProt P06493); assay: cell-based or functional assay
[1] = biological target: CBP protein (CREB Binding Protein); assay: cell-based or functional assay

Chain of Cdk1 protein (P06493 whole entry): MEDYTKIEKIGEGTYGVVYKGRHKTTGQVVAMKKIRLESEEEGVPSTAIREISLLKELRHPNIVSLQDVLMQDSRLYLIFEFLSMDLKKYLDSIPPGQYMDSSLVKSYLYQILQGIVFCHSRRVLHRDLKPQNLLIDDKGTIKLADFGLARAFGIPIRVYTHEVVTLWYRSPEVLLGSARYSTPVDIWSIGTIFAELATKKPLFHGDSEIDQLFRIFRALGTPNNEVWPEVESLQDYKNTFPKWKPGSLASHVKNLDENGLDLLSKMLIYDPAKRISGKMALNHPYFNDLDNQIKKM

| FoxM1B transcriptional activity (6x FoxM1B TATA-luciferase reporter, U2OS cells) (Cdk1 protein) [% reduction] | FoxM1B transcriptional activity (6x FoxM1B TATA-luciferase reporter, U2OS cells) (% stimulation) [1] | Substance |
| --- | --- | --- |
| 80 | – | CMV T7-FoxM1B L641A mutant protein (from UniProt Q08050 1-763) |
| – | 50 | T7-FoxM1B WT protein (CMV T7-FoxM1B WT) (from UniProt Q08050 1-763) |
